The text below walks through data of paper PMC10761851, “Asymmetric α-benzylation of cyclic ketones enabled by concurrent chemical aldol condensation and biocatalytic reduction” (Nature Communications, 2024).

The term Km denotes the substrate concentration at which the rate is half of its maximum. As usually defined, the kcat is the number of substrate molecules converted per active site and unit of time at saturation. For orientation: kcat/Km means the turnover number divided by the Michaelis constant.

Substrate in data set [1]: O=C1CCC/C1=C\c1ccccc1
Nature of the data set: purified protein. The format is biochemical, Bacillus subtilis. As to conditions: 1.0 mM NADPH, 10 μM enzyme, PBS 100 mM, pH 7.5, 30 °C.

Substrate in data set [2]: O=C1CCCC/C1=C\c1ccccc1
Put plainly: purified protein. The data set is classed as biochemical, Bacillus subtilis. As to conditions: 1.0 mM NADPH, 10 μM enzyme, PBS 100 mM, pH 7.5, 30 °C.

B1: YqjM (Bacillus subtilis subsp. subtilis str. 168) (protein)
chain: ARKLFTPITIKDMTLKNRIVMSPMCMYSSHEKDGKLTPFHMAHYISRAIGQVGLIIVEASAVNPQGRITDQDLGIWSDEHIEGFAKLTEQVKEQGSKIGIQLAHAGRKAELEGDIFAPSAIAFDEQSATPVEMSAEKVKETVQEFKQAAARAKEAGFDVIEIHAAHGYLIHEFLSPLSNHRTDEYGGSPENRYRFLREIIDEVKQVWDGPLFVRVSASDYTDKGLDIADHIGFAKWMKEQGVDLIDCSSGALVHADINVFPGYQVSFAEKIREQADMATGAVGMITDGSMAEEILQNGRADLIFIGRELLRDPFFARTAAKQLNTEIPAPVQYERGW
notes: ene-reductase, FMN enzyme
Regarding B1, in “purified protein [1]”, the Km is recorded as 8.35 ± 0.2 mM, the catalytic constant (kcat) amounted to 0.23 ± 0.005 s⁻¹ and the kcat/Km stood at 30 M⁻¹ s⁻¹. In addition, in the data set “purified protein [2]”, the Km came out at 7.98 ± 0.18 mM, the catalytic constant (kcat) stood at 0.19 ± 0.009 s⁻¹ and the kcat/Km stood at 20 M⁻¹ s⁻¹.

B2: YqjM (Bacillus subtilis subsp. subtilis str. 168; I69Y) (protein)
chain: ARKLFTPITIKDMTLKNRIVMSPMCMYSSHEKDGKLTPFHMAHYISRAIGQVGLIIVEASAVNPQGRYTDQDLGIWSDEHIEGFAKLTEQVKEQGSKIGIQLAHAGRKAELEGDIFAPSAIAFDEQSATPVEMSAEKVKETVQEFKQAAARAKEAGFDVIEIHAAHGYLIHEFLSPLSNHRTDEYGGSPENRYRFLREIIDEVKQVWDGPLFVRVSASDYTDKGLDIADHIGFAKWMKEQGVDLIDCSSGALVHADINVFPGYQVSFAEKIREQADMATGAVGMITDGSMAEEILQNGRADLIFIGRELLRDPFFARTAAKQLNTEIPAPVQYERGW
notes: ene-reductase, FMN enzyme
For the protein B2, in “purified protein [1]”, the Km was determined as 4.25 ± 0.09 mM, the kcat was determined as 0.65 ± 0.015 s⁻¹ and the kcat/Km stood at 150 M⁻¹ s⁻¹. In “purified protein [2]”, the Km turned out to be 4.56 ± 0.12 mM, the kcat amounted to 0.87 ± 0.012 s⁻¹ and the kcat/Km turned out to be 190 M⁻¹ s⁻¹.

B3: YqjM (Bacillus subtilis subsp. subtilis str. 168; C26A/I69Y) (protein)
chain: ARKLFTPITIKDMTLKNRIVMSPMAMYSSHEKDGKLTPFHMAHYISRAIGQVGLIIVEASAVNPQGRYTDQDLGIWSDEHIEGFAKLTEQVKEQGSKIGIQLAHAGRKAELEGDIFAPSAIAFDEQSATPVEMSAEKVKETVQEFKQAAARAKEAGFDVIEIHAAHGYLIHEFLSPLSNHRTDEYGGSPENRYRFLREIIDEVKQVWDGPLFVRVSASDYTDKGLDIADHIGFAKWMKEQGVDLIDCSSGALVHADINVFPGYQVSFAEKIREQADMATGAVGMITDGSMAEEILQNGRADLIFIGRELLRDPFFARTAAKQLNTEIPAPVQYERGW
notes: ene-reductase, FMN enzyme
Take B3: in “purified protein [1]”, the Km was 2.65 ± 0.02 mM, the kcat turned out to be 0.89 ± 0.023 s⁻¹ and the kcat/Km worked out at 340 M⁻¹ s⁻¹. Moreover, in the data set “purified protein [2]”, the Km is on record as 2.98 ± 0.1 mM, the kcat turned out to be 1.12 ± 0.02 s⁻¹ and the kcat/Km was 380 M⁻¹ s⁻¹.

B4: YqjM (Bacillus subtilis subsp. subtilis str. 168; C26G/I69Y/Y28F) (protein)
chain: ARKLFTPITIKDMTLKNRIVMSPMGMFSSHEKDGKLTPFHMAHYISRAIGQVGLIIVEASAVNPQGRYTDQDLGIWSDEHIEGFAKLTEQVKEQGSKIGIQLAHAGRKAELEGDIFAPSAIAFDEQSATPVEMSAEKVKETVQEFKQAAARAKEAGFDVIEIHAAHGYLIHEFLSPLSNHRTDEYGGSPENRYRFLREIIDEVKQVWDGPLFVRVSASDYTDKGLDIADHIGFAKWMKEQGVDLIDCSSGALVHADINVFPGYQVSFAEKIREQADMATGAVGMITDGSMAEEILQNGRADLIFIGRELLRDPFFARTAAKQLNTEIPAPVQYERGW
notes: ene-reductase, FMN enzyme
On to B4, for which, in “purified protein [1]”, the Km is reported as 2.21 ± 0.02 mM, the kcat is 0.49 ± 0.012 s⁻¹ and the kcat/Km amounted to 220 M⁻¹ s⁻¹.

B5: YqjM (Bacillus subtilis subsp. subtilis str. 168; C26G/I69Y) (protein)
chain: ARKLFTPITIKDMTLKNRIVMSPMGMYSSHEKDGKLTPFHMAHYISRAIGQVGLIIVEASAVNPQGRYTDQDLGIWSDEHIEGFAKLTEQVKEQGSKIGIQLAHAGRKAELEGDIFAPSAIAFDEQSATPVEMSAEKVKETVQEFKQAAARAKEAGFDVIEIHAAHGYLIHEFLSPLSNHRTDEYGGSPENRYRFLREIIDEVKQVWDGPLFVRVSASDYTDKGLDIADHIGFAKWMKEQGVDLIDCSSGALVHADINVFPGYQVSFAEKIREQADMATGAVGMITDGSMAEEILQNGRADLIFIGRELLRDPFFARTAAKQLNTEIPAPVQYERGW
notes: ene-reductase, FMN enzyme
Turning to B5, in the data set “purified protein [1]”, the Km is 1.21 ± 0.01 mM, the kcat worked out at 1.59 ± 0.03 s⁻¹ and the kcat/Km was 1310 M⁻¹ s⁻¹. For the same protein, in the data set “purified protein [2]”, the Km is listed as 1.1 ± 0.03 mM, the kcat was found to be 1.86 ± 0.05 s⁻¹ and the kcat/Km stood at 1690 M⁻¹ s⁻¹.

B6: YqjM (Bacillus subtilis subsp. subtilis str. 168; I69G) (protein)
chain: ARKLFTPITIKDMTLKNRIVMSPMCMYSSHEKDGKLTPFHMAHYISRAIGQVGLIIVEASAVNPQGRGTDQDLGIWSDEHIEGFAKLTEQVKEQGSKIGIQLAHAGRKAELEGDIFAPSAIAFDEQSATPVEMSAEKVKETVQEFKQAAARAKEAGFDVIEIHAAHGYLIHEFLSPLSNHRTDEYGGSPENRYRFLREIIDEVKQVWDGPLFVRVSASDYTDKGLDIADHIGFAKWMKEQGVDLIDCSSGALVHADINVFPGYQVSFAEKIREQADMATGAVGMITDGSMAEEILQNGRADLIFIGRELLRDPFFARTAAKQLNTEIPAPVQYERGW
notes: ene-reductase, FMN enzyme
On to B6, for which, in “purified protein [1]”, the Km stood at 3.56 ± 0.08 mM, the kcat is 0.39 ± 0.012 s⁻¹ and the kcat/Km came to 110 M⁻¹ s⁻¹. In “purified protein [2]”, the Km amounted to 3.48 ± 0.11 mM, the kcat is 0.43 ± 0.01 s⁻¹ and the kcat/Km turned out to be 120 M⁻¹ s⁻¹.

B7: YqjM (Bacillus subtilis subsp. subtilis str. 168; C26G/I69Y/Y169F) (protein)
chain: ARKLFTPITIKDMTLKNRIVMSPMGMYSSHEKDGKLTPFHMAHYISRAIGQVGLIIVEASAVNPQGRYTDQDLGIWSDEHIEGFAKLTEQVKEQGSKIGIQLAHAGRKAELEGDIFAPSAIAFDEQSATPVEMSAEKVKETVQEFKQAAARAKEAGFDVIEIHAAHGFLIHEFLSPLSNHRTDEYGGSPENRYRFLREIIDEVKQVWDGPLFVRVSASDYTDKGLDIADHIGFAKWMKEQGVDLIDCSSGALVHADINVFPGYQVSFAEKIREQADMATGAVGMITDGSMAEEILQNGRADLIFIGRELLRDPFFARTAAKQLNTEIPAPVQYERGW
notes: ene-reductase, FMN enzyme
With B7, in the data set “purified protein [1]”, the Km came out at 1.69 ± 0.01 mM, the kcat amounted to 0.56 ± 0.009 s⁻¹ and the kcat/Km was determined as 330 M⁻¹ s⁻¹.
